For this experiment, the target named is EGFR (human) (UniProt P00533). Briefly: flow cytometry on HCC-1954 cells, upper panel; staining antibody not named on the sheet or in the legend, assigned by analogy with FIG. 28A and 28C; open histogram shifted from the hatched control.

As for EGFR 528 (phb 704) (antibody), the MFI stood at 262.

The record behind these values is patent US20180273623A1.
